According to patent US20110059077A1 (JURIDICAL FDN THE CHEMO SERO THERAPEUTIC RES INST, published 2011):
Like-named read-outs stand apart in the source and are kept apart here.

How the values were obtained:
Test in all cases: cell-based or functional assay
[1] = molecular target: T1, human α9 integrin molecule expressed on SW480 cells (human, UniProt Q13797 30-1035; P05556 21-798)
[2] = molecular target: T1, human α9 integrin molecule expressed on …; remark: listed apart in the source
[3] = molecular target: T1, human α9 integrin molecule expressed on …; remark: listed apart in the source

T1 sequence (Q13797 30-1035, form in doubt, chain 1 of 2): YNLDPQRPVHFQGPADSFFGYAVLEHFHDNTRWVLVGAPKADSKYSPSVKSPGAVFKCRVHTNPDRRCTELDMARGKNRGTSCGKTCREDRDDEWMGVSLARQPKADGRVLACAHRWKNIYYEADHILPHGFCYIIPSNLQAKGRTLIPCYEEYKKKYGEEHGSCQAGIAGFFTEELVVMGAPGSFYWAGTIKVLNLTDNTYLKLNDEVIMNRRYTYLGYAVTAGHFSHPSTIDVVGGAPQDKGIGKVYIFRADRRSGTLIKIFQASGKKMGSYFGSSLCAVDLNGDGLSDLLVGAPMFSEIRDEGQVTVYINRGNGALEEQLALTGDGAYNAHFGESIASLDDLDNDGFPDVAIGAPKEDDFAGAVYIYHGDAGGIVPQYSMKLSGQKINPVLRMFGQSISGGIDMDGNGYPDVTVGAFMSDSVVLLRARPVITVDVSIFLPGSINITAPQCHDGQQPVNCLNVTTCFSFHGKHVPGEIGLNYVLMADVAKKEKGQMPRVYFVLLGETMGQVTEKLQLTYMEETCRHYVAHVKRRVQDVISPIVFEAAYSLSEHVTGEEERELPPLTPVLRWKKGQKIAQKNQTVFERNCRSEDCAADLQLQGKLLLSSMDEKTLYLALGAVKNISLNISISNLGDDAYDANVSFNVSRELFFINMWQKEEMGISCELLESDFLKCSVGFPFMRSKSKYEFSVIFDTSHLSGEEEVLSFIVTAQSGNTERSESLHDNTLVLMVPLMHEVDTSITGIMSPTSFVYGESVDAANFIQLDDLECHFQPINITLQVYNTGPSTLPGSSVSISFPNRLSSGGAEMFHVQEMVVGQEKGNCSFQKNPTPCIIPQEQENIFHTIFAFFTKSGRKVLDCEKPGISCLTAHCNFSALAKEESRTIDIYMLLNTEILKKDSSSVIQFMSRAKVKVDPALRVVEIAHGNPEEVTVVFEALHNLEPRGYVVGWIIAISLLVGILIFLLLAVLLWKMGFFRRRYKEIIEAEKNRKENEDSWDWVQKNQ
T1 sequence (P05556 21-798, form in doubt, chain 2 of 2): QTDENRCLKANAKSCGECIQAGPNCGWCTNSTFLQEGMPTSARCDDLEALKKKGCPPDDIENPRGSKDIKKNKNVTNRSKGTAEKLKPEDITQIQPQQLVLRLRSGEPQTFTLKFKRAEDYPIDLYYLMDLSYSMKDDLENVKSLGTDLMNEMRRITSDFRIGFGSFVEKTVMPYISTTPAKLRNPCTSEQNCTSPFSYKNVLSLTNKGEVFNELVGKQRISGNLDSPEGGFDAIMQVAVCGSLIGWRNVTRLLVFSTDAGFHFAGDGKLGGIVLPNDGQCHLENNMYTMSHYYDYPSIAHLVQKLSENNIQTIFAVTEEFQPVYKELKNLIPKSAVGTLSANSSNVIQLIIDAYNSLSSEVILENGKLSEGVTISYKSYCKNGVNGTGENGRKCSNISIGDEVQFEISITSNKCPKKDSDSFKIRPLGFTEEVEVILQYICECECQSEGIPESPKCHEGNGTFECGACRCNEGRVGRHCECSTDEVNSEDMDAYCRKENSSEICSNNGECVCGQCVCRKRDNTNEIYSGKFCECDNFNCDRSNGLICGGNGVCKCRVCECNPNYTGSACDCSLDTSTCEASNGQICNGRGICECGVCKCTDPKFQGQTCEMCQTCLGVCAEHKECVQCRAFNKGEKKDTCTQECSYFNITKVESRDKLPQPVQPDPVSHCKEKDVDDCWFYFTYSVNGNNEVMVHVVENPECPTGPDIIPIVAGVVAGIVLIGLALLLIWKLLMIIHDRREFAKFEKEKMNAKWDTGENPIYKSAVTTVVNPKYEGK

Binder	specific activity (IC50 relative to mouse Y9A2 = 1), cell adhesion inhibition to human Tenascin C-RAA [1]	specific activity (IC50 relative to mouse Y9A2 = 1), cell adhesion inhibition to human VCAM-1 [1]	specific activity (IC50 relative to mouse Y9A2 = 1), cell adhesion inhibition, SW480/hα9 cells to nOPN-RAA [2]	specific activity (IC50 relative to mouse Y9A2 = 1), cell adhesion inhibition, SW480/hα9 cells to nOPN-RAA [3]
RY9A2v11(M34L)012 antibody (antibody, human IgG1, kappa, V domains shown) VH: QVQLVQSGAEVKKPGSSVKMSCKASGYTLTTYWLHWVKQRPGQGLEWIGYINPSSGYTEYNQKFQGRVTITADKSTSTAYMELSSLRSEDTAVYYCAIYGDYGDFYFDYWGQGTTVTVSS VL: DIQMTQSPSSLSASVGDRVTITCRASQSVNTDVAWYQQKPGKAPKLLIYFASNHYTGVPSRFSGSGSGTDFTFTISSLQPEDIATYYCRQDYSSPFTFGGGTKVEIKR	0.35 ratio to IC50 of mouse Y9A2	0.44 ratio to IC50 of mouse Y9A2	0.23 ratio to IC50 of mouse Y9A2	
RY9A2v5(IAW)01 antibody (antibody, human IgG1, kappa, V domains shown) VH: QVQLVQSGAEVKKPGSSVKMSCKASGYTLTTYWIHWVKQRPGQGLEWIGYINPSSGYTEYNQKFKDRVTITADKSTSTAYMELSSLRSEDTAVYYCAIYGDYGAWYFDYWGQGTTVTVSS VL: DIQMTQSPSSLSASVGDRVTITCKASQSVNTDVAWYQQKPGKAPKLLIYFASNHYTGVPSRFSGSGSGTDFTFTISSLQPEDIATYYCRQDYSSPFTFGGGTKVEIKR	0.44 ratio to IC50 of mouse Y9A2	1 ratio to IC50 of mouse Y9A2	0.29 ratio to IC50 of mouse Y9A2	
RY9A2v12(M34L)012 antibody (antibody, human IgG1, kappa, V domains shown) VH: QVQLVQSGAEVKKPGSSVKVSCKASGYTLTTYWLHWVRQAPGQGLEWMGYINPSSGYTEYNQKFQGRVTITADKSTSTAYMELSSLRSEDTAVYYCAIYGDYGDFYFDYWGQGTTVTVSS VL: DIQMTQSPSSLSASVGDRVTITCRASQSVNTDVAWYQQKPGKAPKLLIYFASNHYTGVPSRFSGSGSGTDFTFTISSLQPEDIATYYCRQDYSSPFTFGGGTKVEIKR	0.26 ratio to IC50 of mouse Y9A2	0.95 ratio to IC50 of mouse Y9A2	0.23 ratio to IC50 of mouse Y9A2	
mouse anti-human α9 integrin antibody Y9A2 (antibody, V domains shown) VH: QVQLQQSGAELANPGASVKMSCKASGYTLTTYWMHWVKQRPGQGLEWIGYINPSSGYTEYNQKFKDKATLTADKSSSTAYMQLTSLTSEDSAVYYCAIYGDYGDFYFDYWGQGTTLTVSS VL: SIVMTQTPKFLLVSAGDRVTMTCKASQSVNTDVAWFQQKPGQSPKLLIYFASNHYTGVPDRFTGSGYGTDFTFTISTVQAEDLAIYFCRQDYSSPFTFGGGTKLEIKR	1 ratio to IC50 of mouse Y9A2	1 ratio to IC50 of mouse Y9A2	1 ratio to IC50 of mouse Y9A2	1 ratio to IC50 of mouse Y9A2
RY9A2v501 antibody (antibody, V domains shown) VH: QVQLVQSGAEVKKPGSSVKMSCKASGYTLTTYWMHWVKQRPGQGLEWIGYINPSSGYTEYNQKFKDRVTITADKSTSTAYMELSSLRSEDTAVYYCAIYGDYGDFYFDYWGQGTTVTVSS VL: DIQMTQSPSSLSASVGDRVTITCKASQSVNTDVAWYQQKPGKAPKLLIYFASNHYTGVPSRFSGSGSGTDFTFTISSLQPEDIATYYCRQDYSSPFTFGGGTKVEIKR				0.77 ratio to IC50 of mouse Y9A2
RY9A2v801 antibody (antibody, V domains shown) VH: QVQLVQSGAEVKKPGSSVKVSCKASGYTLTTYWMHWVRQAPGQGLEWMGYINPSSGYTEYNQKFKDRVTITADKSTSTAYMELSSLRSEDTAVYYCAIYGDYGDFYFDYWGQGTTVTVSS VL: DIQMTQSPSSLSASVGDRVTITCKASQSVNTDVAWYQQKPGKAPKLLIYFASNHYTGVPSRFSGSGSGTDFTFTISSLQPEDIATYYCRQDYSSPFTFGGGTKVEIKR				0.82 ratio to IC50 of mouse Y9A2
